# Test results as given in US20240317834A1, “COMPOSITIONS AND METHODS FOR NEUROLOGICAL DISEASES” (CODA BIOTHERAPEUTICS, INC., priority 2020, published 2024).
# B1: CODA109: engineered chimeric LGIC receptor, S170T in SEQ ID NO: 33 (protein)
# chain: MRCSPGGVWLALAASLLHVSLQGEFQRKLYKELVKNYNPLERPVANDSQPLTVYFSLSLLQIMDVDEKNQVLTTNIWLQMSWTDHYLQWNVSEYPGVKTVRFPDGQIWKPDILLYNSADERFDATFHTNVLVNSSGHCQYLPPGIFKSSCPMDLKNFPMDVQTCKLKFGTWSYGGWSLDLQMQEADISGYIPNGEWDLVGIPGKRSERFYECCKEPYPDVTFTVTMRRRMGYYLIQMYIPSLLIVILSWISFWINMDAAPARVGLGITTVLTMTTQSSGSRASLPKVSYVKAIDIWMAVCLLFVFSALLEYAAVNFVSRQHKELLRFRRKRRHHKSPMLNLFQEDEAGEGRFNFSAYGMGPACLQAKDGISVKGANNSNTTNPPPAPSKSPEEMRKLFIQRAKKIDKISRIGFPMAFLIFNMFYWIIYKIVRREDVHNQ
# modifications: synthetic sequence of chimeric LGIC
# Tested on: Lenti-X 293T cells
# Assay: YFP fluorescence quenching anion reporter plate reader assay of engineered receptors stimulated with acetylcholine or a non-native ligand
# Assay type: cell-based
# Procedure, shortened: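 Lenti-X 293T cells carrying a YFP anion reporter were transiently transfected with channel DNA and assayed the next day in HEPES-buffered ECS at pH 7.2. Ligand (acetylcholine or non-native ligand) was added in NaI-substituted ECS. Percent quench was the mean of the last 10 s relative to the 15 s pre-addition baseline.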
molecule,measurement,setting,value
B1,YFP fluorescence quenching using CNL001,"1 nM CNL001, first column",19.755%
same,YFP fluorescence quenching using CNL001,"1 nM CNL001, second column",65.484%
same,YFP fluorescence quenching using TC-5619/Bradanicline,3 nM brd,70.58%
same,YFP fluorescence quenching using Varenicline,"3 nM var, first column",−20.96
same,YFP fluorescence quenching using Varenicline,"3 nM var, second column",−19.953
same,YFP fluorescence quenching using CNL001,"10 nM CNL001, first column",79.024%
same,YFP fluorescence quenching using CNL001,"10 nM CNL001, second column",81.563%
same,YFP fluorescence quenching using TC-5619/Bradanicline,30 nM brd,80.71%
same,YFP fluorescence quenching using Facinicline,30 nM fac,76.45
same,YFP fluorescence quenching using Varenicline,"30 nM var, first column",−16.094
same,YFP fluorescence quenching using Varenicline,"30 nM var, second column",−21.502
same,YFP fluorescence quenching using CNL001,"50 nM CNL001, first column",81.926%
same,YFP fluorescence quenching using CNL001,"50 nM CNL001, second column",83.092%
same,YFP fluorescence quenching using ABT-126,50 nM abt,55.83%
same,YFP fluorescence quenching using CNL001,"100 nM CNL001, first column",83%
same,YFP fluorescence quenching using CNL001,"100 nM CNL001, second column",83.811%
same,YFP fluorescence quenching using CNL002,100 nM CNL002,73.48%
same,YFP fluorescence quenching using ABT-126,100 nM abt,68.89%
same,YFP fluorescence quenching using AZD-0328,100 nM azd0328,84.01%
same,YFP fluorescence quenching using Facinicline,100 nM fac,82.45
same,YFP fluorescence quenching using ABT-126,300 nM abt,72.52%
same,YFP fluorescence quenching using AZD-0328,300 nM azd0328,87.08%
same,YFP fluorescence quenching using TC-5619/Bradanicline,300 nM brd,80.66%
same,YFP fluorescence quenching using Facinicline,300 nM fac,71.09
same,YFP fluorescence quenching using Varenicline,"300 nM var, first column",64.373
same,YFP fluorescence quenching using Varenicline,"300 nM var, second column",71.198
same,YFP fluorescence quenching using Varenicline,"500 nM var, first column",71.892
same,YFP fluorescence quenching using Varenicline,"500 nM var, second column",73.53
same,YFP fluorescence quenching using CNL001,"1 uM CNL001, first column",81.834%
same,YFP fluorescence quenching using CNL001,"1 uM CNL001, second column",83.858%
same,YFP fluorescence quenching using CNL002,1 uM CNL002,70.03%
same,YFP fluorescence quenching using ABT-126,1 uM abt,70.96%
same,YFP fluorescence quenching using TC-6987,1 uM tc6987,71.45
same,YFP fluorescence quenching using Varenicline,"1 uM var, first column",75.461
same,YFP fluorescence quenching using Varenicline,"1 uM var, second column",78.578
same,YFP fluorescence quenching using TC-6987,10 uM tc6987,71.04
same,YFP fluorescence quenching using AZD-0328,30 uM azd0328,87.27%
same,YFP fluorescence quenching using Facinicline,30 uM fac,69.41
same,YFP fluorescence quenching using TC-6987,500 uM tc6987,66.2
same,"percent quench of YFP fluorescence, 10 uM ach",acetylcholine 10 uM,82.91%
same,"percent quench of YFP fluorescence, 30 uM ach",acetylcholine 30 uM,82.53%
same,"percent quench of YFP fluorescence, 50 uM ach",acetylcholine 50 uM,82.11%
same,"percent quench of YFP fluorescence, 100 uM ach",acetylcholine 100 uM,83.68%
same,"percent quench of YFP fluorescence, 1 mM ach",acetylcholine 1 mM,69.89%
same,"percent quench of YFP fluorescence, 3 mM ach",acetylcholine 3 mM,78.12%
